Key:
TbDHSc-TbDHSp = biological target: T1, TbDHSc-TbDHSp (Trypanosoma brucei, UniProt Q38BX0+Q4GZD1); test: [3H]spermidine incorporation into eIF5A, nitrocellulose filter binding assay; format: biochemical
T1 construct: gene DHSc; His6-SUMO-TbDHSc co-expressed with tagless TbDHSp in E. coli; SUMO tag cut with Ulp1, tag-free; 50 kDa + 37 kDa; 2:2 heterotetramer, 175 kDa
T1 sequence (Q38BX0 1-461): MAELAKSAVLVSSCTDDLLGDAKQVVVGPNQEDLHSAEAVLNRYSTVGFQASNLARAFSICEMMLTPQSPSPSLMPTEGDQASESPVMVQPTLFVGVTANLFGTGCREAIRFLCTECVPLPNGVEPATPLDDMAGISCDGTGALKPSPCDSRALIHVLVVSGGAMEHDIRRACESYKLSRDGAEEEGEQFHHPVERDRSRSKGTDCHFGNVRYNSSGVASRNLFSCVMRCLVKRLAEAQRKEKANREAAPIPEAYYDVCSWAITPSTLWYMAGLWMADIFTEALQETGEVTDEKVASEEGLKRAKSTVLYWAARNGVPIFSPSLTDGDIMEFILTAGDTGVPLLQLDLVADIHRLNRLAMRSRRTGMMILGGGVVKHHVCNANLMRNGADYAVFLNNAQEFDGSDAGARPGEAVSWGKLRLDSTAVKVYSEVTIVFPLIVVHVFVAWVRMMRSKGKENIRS
T1 sequence (Q4GZD1 1-342): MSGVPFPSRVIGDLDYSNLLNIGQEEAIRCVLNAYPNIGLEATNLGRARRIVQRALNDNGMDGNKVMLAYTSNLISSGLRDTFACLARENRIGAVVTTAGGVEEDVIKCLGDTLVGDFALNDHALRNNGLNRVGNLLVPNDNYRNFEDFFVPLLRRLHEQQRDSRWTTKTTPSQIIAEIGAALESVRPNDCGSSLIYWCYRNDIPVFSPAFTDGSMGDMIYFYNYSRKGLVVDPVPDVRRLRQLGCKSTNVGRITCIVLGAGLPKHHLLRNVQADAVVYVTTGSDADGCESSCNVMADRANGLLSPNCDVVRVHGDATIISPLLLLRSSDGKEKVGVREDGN
Text: [3H]spermidine incorporation into eIF5A, nitrocellulose filter binding assay on TbDHSc-TbDHSp | GC7 inhibited the activity of TbDHSc-TbDBHSp and the growth of BSF cells at similar concentrations

[1] = substrate: NC(=O)c1ccc[n+]([C@@H]2O[C@H](COP(=O)(O)OP(=O)(O)OC[C@H]3O[C@@H](n4cnc5c(N)ncnc54)[C@H](O)[C@@H]3O)[C@@H](O)[C@H]2O)c1; test: as above; format: biochemical, Trypanosoma brucei; details: 100 μM TbeIF5A, 100 μM spermidine, pH 9.3 glycine-NaOH, 37 °C, 1 mM DTT, varied: cofactor
Text: (§1) [3H]spermidine incorporation into eIF5A, nitrocellulose filter binding assay on TbDHSc-TbDHSp

[2] = substrate: NCCCCNCCCN; test: as above; format: biochemical, Trypanosoma brucei; details: 1 mM NAD+, 100 μM TbeIF5A, pH 9.3 glycine-NaOH, 37 °C, 1 mM DTT, labelled compound
Text: as §1

[3] = biological target: T2, TbDHSc (T. brucei deoxyhypusine synthase, catalytic subunit), recombinant, expressed as His6-SUMO-TbDHSc (T. brucei, UniProt Q38BX0 1-461); test: AUC; sedimentation velocity of the purified TbDHSc-TbDHSp complex at A280 0.7, 0.2 and 0.05 in 50 mM Hepes, 150 mM NaCl, pH 8.0; 20 °C, 40,000 rpm; interference data analysed with SEDFIT c(s); details: both partners purified
T2 construct: T. brucei deoxyhypusine synthase catalytic subunit (TbDHSc), TriTrypDB Tb927.10.2750; open reading frame cloned into pE-SUMO Kan; 50 kDa on SDS-PAGE; it was removed with Ulp1 before gel filtration and sedimentation velocity; not shown: His6-SUMO, N-terminal, cleaved
T2 sequence (looked up): T1 sequence (Q38BX0 1-461)

## N=C(N)NCCCCCCCN [GC7]
TbDHSc-TbDHSp
  IC50: 1500 ± 150 nM

B1: TbDHSc-TbDHSp (Trypanosoma brucei brucei TREU927) (protein)
chain 1: T1 sequence (Q38BX0 1-461)
chain 2: T1 sequence (Q4GZD1 1-342)
notes: His6-SUMO-TbDHSc co-expressed with tagless TbDHSp in E. coli; SUMO tag cut with Ulp1, tag-free; 50 kDa + 37 kDa; 2:2 heterotetramer, 175 kDa
[1]
  Km: 82 ± 16 µM
  kcat: 0.018 ± 0.001 s⁻¹
[2]
  Km: 43 ± 5 µM
  kcat: 0.015 ± 0.001 s⁻¹

B2: TbDHSp (T. brucei deoxyhypusine synthase prozyme (activating) subunit), recombinant, untagged (natural protein, UniProt Q4GZD1 1-342, looked up)
chain: T1 sequence (Q4GZD1 1-342)
notes: T. brucei deoxyhypusine synthase prozyme subunit (TbDHSp), catalytically dead paralog, TriTrypDB Tb927.1.870; open reading frame cloned untagged into the HindIII-KpnI site of pT7-FLAG-MAT-Tag-2 with a stop codon inserted; 37 kDa on SDS-PAGE; the vector's C-terminal tag was removed by insertion of a stop codon; also called tagless TbDHSp; untagged TbDHSp
[3]
  stoichiometry N: 1 TbDHSp per TbDHSc (2:2 heterotetramer)
